The values that follow come from article PMC6222199, “Regulatory Targets of the Response Regulator RR_1586 from Clostridioides difficile Identified Using a Bacterial One-Hybrid Screen”.

For data set [1], the target named is T1, RR_1586 (Clostridioides difficile R20291, UniProt A0A9R0BKD1 1-223). Description: EMSA; 10 mM Mg2+; EMSA: 5 pmol DNA in 10 ul (500 nM), 10 mM Tris pH 8, 50 mM NaCl, 10 mM MgCl2, room temperature 10 min; 10% PAGE 0.5x TBE on ice, ethidium bromide. To be noted: protein: recombinant; tags: His6; chain copies: 2; blunt. In general terms: Mobility shift assays separate free from complexed probe on a gel.

The target in data set [2] is T1, RR_1586. Description: EMSA; 10 mM Mg2+; unphosphorylated; EMSA: 5 pmol DNA in 10 ul (500 nM), 10 mM Tris pH 8, 50 mM NaCl, 10 mM MgCl2, room temperature 10 min; 10% PAGE 0.5x TBE on ice, ethidium bromide. To be noted: protein: recombinant; tags: His6; chain copies: 2; blunt.

B1: CDR20291_0578 native direct repeat (dsDNA)
DNA 1: ATTTTATTAAGAATGGGTTAAGAGTATAC
DNA 2: GTATACTCTTAACCCATTCTTAATAAAAT
Take B1: the binding result with RR_1586 [1] was “binds”.

B2: CDR20291_1583 site (dsDNA)
DNA 1: AGGAATTAAGGAGCAATTAAATGATG
DNA 2: CATCATTTAATTGCTCCTTAATTCCT
For B2, the binding result in the data set with RR_1586 [2] is reported as “binds”.

B3: CDR20291_3145 site (dsDNA)
DNA 1: ATAGTTAAGGTTTAATTAAGATTAAA
DNA 2: TTTAATCTTAATTAAACCTTAACTAT
Turning to B3, the binding result with RR_1586 [1] is on record as “binds”.

B4: CDR20291_3121 (pst) site (dsDNA)
DNA 1: CTATATTAGGATTAAGTTAAGCAAGTGT
DNA 2: ACACTTGCTTAACTTAATCCTAATATAG
On to B4, for which the binding result in the data set with RR_1586 [1] is reported as “binds”.
